Measurements published in the domain aggregation screens of Martell et al. (2025).

Assay: soluble fraction after stress (log2 fold change); higher = more stays soluble; pooled small domains, quantitative proteomics
Settings: stress: 75 degC
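Also: 20 min heating vs room temperature control held 20 min.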

| Sequence | soluble fraction (log2) |
| --- | --- |
| HMILKQTHIVQELTGPIRLQEYGVGIFQQISTKSALKKALKKNQITVDGVVGSTATFIKGGEIIIYHVTE | -2.67 |
| HMILNDRSELLDVVKRVIAANPASVADYRKGKKKVLGFLVGQAMKETKGQADPRILNELFLQELGEN | 0.108 |
| HMILNNAKINTELNSLAEFTQRSLDSNTSEIGFYDYKKISYIASFATMKTTNWNVIIRAPINEFMGTVN | 0.126 |
| HMILQTLSERVTETLRDWILHGHFKPGDKIEEVPIAERMGVSRTPVRAAFATLTNEGLIDHQPNRGYQVRV | -0.496 |
| HMILSTNFFRHIVPKEYQTSYGTMKKWLTDHNVIGTNSIPQGIGYRIPTQGLSSTFSFKVVDVLPDR | -0.986 |
| HMIMDQTILRKQRELTDRLNRYRNEYYNHNKPSVSDEVYDRLFDELQSLEKETGVQMANSPTTTVG | -0.0853 |
| HMIMGTITKRTNPSGAIVYRAQIRIKKAGYPDFSESRTFSKKAMAVEWLKLREAELEMHPELLFR | -2.35 |
| HMIMHLNQIIRNKRLAAGLTQEALAQKVGVTAPAVSKWEKGISYPDITLLPILARNLNTDVNTLLDFSA | -1.29 |
| HMIMNLNVLANNVRRLRTAQRLSQSALASKAGLSVPAIKNLENARNEPRVNTVQVIAHALEVRLQDLFAPT | -1.81 |
| HMIMTEKEKKLLNRYIMHDTIHKLYHEQNKSMRWIADNLGINFRTVQKYLDMDSGEFQKYSESISNR | -0.97 |
| HMIMTIYEYIARNNPTGAKRVIESFGYVVTQPKKMGDNLRMLVAQEGEPALKAVVDLHPDKDLILEV | -2.69 |
| HMINAQETEIYRFLIEKANRLYSMVLGLKREELMTATRQFEEEVKHSSIHHLPKIYQAFSSYLELLERG | -1.2 |
| HMINDKLQHLFSLFPAMDKELKRKGITRQILWVEYKKQYPLGFGRSQFNSYFAAWKAQVSPS | -1.98 |
| HMINFLSKREIEVLRLVADGLSNRDVGQYLFISESTVKRHLSTIYEKLAVKSRTQAIDHARRADL | -3.6 |
| HMINGTITFYDDTTLKGELSSLDTKYLFIIPNGLVMPEKIAVSDIEYFNLDNGITLIQDGISKQTY | -1.09 |
| HMINLGDLEVGHTYHTRMPILQNDLKYSHKSPIQIVAEHSIVYGVRVYIGFLNEHRVLVTADDV | 0.0105 |
| HMINLRTALNNAGVMQKELSDILYMTPQDVNRRFSGVTKWKPLEKRAIMQFLEDRGFEYTEEQLF | -0.564 |
| HMINLVPFELKFITAQVLDDIIKKIGINADTIILDINPKKIWVYAGEQELSDIQNIVKNVDVEDNI | -1.71 |
| HMINVLTPKQIEATTIAVKYGYYENPRTVSMRELSEISGIARSTLQEHLSKAEAALMILAAKSQL | -0.365 |
| HMINVVDEVIKHLETNIISGFWAPGQKIDSEATLSKQLNVSRASIHTAIQQLIATGVLESFQGKGTFVRS | -0.305 |
| HMIPDGKWKEDPISDGQKNFINSLIEQAIDAGQDELGAEAKKYLASGEATKGNASAMIDKLKSAL | 0.39 |
| HMIPDMSLELAMSEQTSKGDLYGDLPNDKLALMFNAISKKVPHTDDHKRKMVAIQTILESRAS | -0.415 |
| HMIPEGKWMEDPISEGQIKFIETLIKQAIDSGQDALGAEAKQYLSSGEATKGNASSMIDKLKDAL | 0.433 |
| HMIPEILNGYTKWGDDEPFEDHAGPFYMKMMPSTGRHLSAFIPEQRHMNGGGFLHGGMLMSFADYALFVI | 0.244 |
| HMIPEKEISYMMPDGFMPKELKIIHITESGRKQIYSAAHKPLDLVNVKAPFVPNTKVQIYINDVPIEELKI | -1.01 |
| HMIPKDKQAWIALTYIYGVGRTTSMEILKKAQVGEEIRMKDLTEEEVTRIRNIIDKEYEVEGDLRRN | -0.252 |

| Sequence | soluble fraction (log2) |
| --- | --- |
| HMIPNEKEAARWDALTAEHTAKLNALEGDALDKVGSHEDVSIKRAGVGDAAFREKILSRTHPDDLERALST | -0.0132 |
| HMIQHFARKRRQLELAVQRLSGRMAETNGQVTADMQRLIQQVKALVAELSHVFSRAYLRRVLGGVALVIGS | -0.597 |
| HMIQLTDAEFNELVTYIKKNYGINLIKKRLLIEARMYSVLAKHGFTSFTEYINLIKRDPAELNTMLNKLTT | -3.26 |
| HMIQMRVKVPKNIAGGSLMGAHHFVKSALARTNPGGSTSNYKIQATDGTPLTLGDLTARQYDEVLIISG | -0.668 |
| HMIQTKKVTFTVEPTVNFEKINISGIEFKINSGSSITAIYEKNSHNFDEVLDFLKQKGVKILDIVTED | -0.251 |
| HMIRILIVDDSAFMRKLLSDVFEEDKNFVVVDTARNGQDAVEKVKRLKPDLVTMDVEMPVMDGLTAVEIIM | -0.453 |
| HMIRSNLAEQAYAQLKALIHDFQLLPGDRFSENEMGTRLGVSRTPVREALFRLRNEGFLEVESKAGWYVK | -3.04 |
| HMISAADLQTYLKGMDYPAGREDLVAHAQRNNAPESVITILQGFSDRTYRSAAEVSEEFGRE | 0.495 |
| HMISADSSKVDTLVQVYSNMKPIQAAQVFEKMDEDLVIEILSRMKKKNAADILNLIKTEKAQVFAEKYA | -0.109 |
| HMISAEPVGEDLFKVAFPFLGGSTVFEKTIEQFIEEHPSKRIDHIYTVPNPLRLKKADALIFYIITEEK | -1.07 |
| HMISASDLQTYLKGMDYPARKEDLIVHAQRNNAPESVIAAIRQFSDRTYQSAADVSEEFGKI | 0.602 |
| HMISDEELLVSTKKEIMSLATVLTKTDKKDDAIAIMKEYDPAANPNRIKDVNKAKELLERLQKLG | -0.225 |
| HMISDISEIEAIIVEVLKVFPNQLQEYLDGKEKILSFFVGQVMQRTKGRANPSLVNEILKEKIKN | -1.22 |
| HMISEAEGTILQLLKEADGTLPFTYKSDADEIKKVFGMSKKNFKRTLTELIEAKKIQLLDDAIVL | -0.632 |
| HMISEKEIKIIEDILARWNGKLTWDDFTSKVAKKLNLPSLSKFTLMGYPEIKQAFLTRKQTLK | -0.53 |
| HMISENFVEAKILLTEDNRPKSLEILKDIIRQHDKVYSPLSLFLILDEDLEENKEIILEYFDLVLS | -0.327 |
| HMISESLLDEIPGLGETRRNSLLREFGSVAMIRKASAEEIASRVRGIGAEFAAAIHDFLQTH | -0.446 |
| HMISFHEYLTQLLDEKGLTKAQVITDSNIQKNYGYQIFDGSKTPSRDKVIAIALAMQLTLDEANRLLHLSN | -1.75 |
| HMISFTDLEHIEKMIENVLYTKTPLNLPPTDAKIRKIEHQIARRYGLNSESFGDEPRRFVVVYPNEERE | -0.907 |
| HMISKAQLFSEEELTELYRATGYQLENDPEIHREQFEALQAVRAKIEYAVPDVQEKLEQEQNLGQQ | 0.512 |
| HMISKRFQVDEENSNNRVDIFLANNLDSISRGIVQQLILDGKVLVNGETVKRNHLLKTNDEVDISFEI | 0.349 |
| HMISRDPYDAGAIKRHFSASGLFSSKELAHYLGKSVSTAKNVLSDLQQQGIVEMVGQGPATKYRFI | 0.772 |
| HMISSRDAAVIGLVENIQRAQLNAIDESSGFKHLMETYNLESKEIALLVGKSRSYVSNSLRLSK | 0.124 |
| HMISTVFYVDVKGEVHHPGVYQMKAENRVKDLIEAAGGFTPLADDQKLNLAQLLEDQMVIVVPKKGEEV | 0.243 |
| HMISVTNRTGTGLNDVKVEVFPVGRQMVFSATVFRVESEATNRFSLGELRGSDGTPFNQRVHRPESI | -0.184 |
| HMITAEQENILFEKASDDISNNIINKGIWTKAYSQAGGDESKQKAIYIDLLVNYYKMLIKAGEEFEDI | -2.42 |

| Sequence | soluble fraction (log2) |
| --- | --- |
| HMITALLPGTVLIREFDGRDYHVTVATDGRFEMDGHKYPSLSAVAKHITGTQWSGPAFFGLN | -1.06 |
| HMITASNYFIEVERIGIETLPETLKKGHDLVVKSTSNGTNWANYQTSEGIKKVIDLYFQKLNEYANTV | -1.83 |
| HMITDSSEIEAMVDALVKENPGQAEQYKDGNMKVAGWFIGQIMKVSKGKANPQLVGDLLKKKLG | 0.197 |
| HMITERVPVPDLTGMPLMEAIKTLNSSKLQYQVVGSVIEGDENRIIDQTPKPDIMVSEKSIVLLYLETYRG | -2.6 |
| HMITIDADTGKRVYTRKEVADLVGASTQSIRLWEDAGAIPASVRDEGGYRYWYEEDLEAIKAYAS | -0.203 |
| HMITKAIELAEEAEKETVWLGVWEHNHPAQKFYQSLGFVKTDEHDFYMGNERHTDYTMTKQLK | -0.344 |
| HMITLKKRRQEAILEIIEKYDLSTQDELLQKLKDSGFDATQATVSRDIKELRLVKTMGANGQYKYAVT | -0.881 |
| HMITMADKIDTALSEMAANNEKINVSQVAKRLGISNSAIYKFNPEKIPDIQTAQKRQKHKAEAIAVGTEN | -0.0393 |
| HMITMWYYKKDGNIIGPASARKIASMRELGIITDSTPVSRKRNAKNWETFGGLSEKINLESSQWD | -1.98 |
| HMITNEDINIKKLLVVMKDTPLSANEIMDKLNIKSKETLRNMYLDPAIKKGLINLTIPDKPTSKNQKYYK | -0.426 |
| HMITNESEIERIVEAIISKNPESIAQYRSGITKVLGFLVGQVMKETKGRANPALVNRIIISKME | -0.899 |
| HMITSELALVKLVVKGANRVEALRVAETFRARALDVTLSSFVFELTGKPSKLDAFIGLMRSLGDTEILKR | -4.17 |
| HMIVEIVPSALHGERVDRIVAFILDVSRSVASGLVERGAVHVDGSVETSGKVRLVEGQEVSVDPSQVPG | -0.69 |
| HMIVNEQEQTFIKAMRDDDFNTILELKMKGYQPSDNVLKSLQPDISSTTFIAAAKIFQMERMLK | -0.502 |
| HMIVSVPNVRGMGESKAAAALQNRGLLVSIDYESSTSASQGEVIRQSISPGTEVTKGSSITIIIAVSPN | -1.56 |
| HMIVVMQPGATKEQVQAVIDRVAEFGFQTKLAPGAERMVIGVVGSPLPDTLKEALERLPGVEEVIRVSKR | -0.379 |
| HMIVVTSPQVTDERIAEIVAFIEKHGVQAHVSRGTDRTVIGIIGKADPVLAEHLRSMQGVENVIKIS | -0.167 |
| HMIYKLTLLRDLPEAKAGFDFYLRGGLASHDGEEWFSWVTREPIYARLYWLYVEKREEWVLVEETDI | -4.51 |
| HMIYMIDPNDEIAVKLDEIYQRYLNRTIDPEGLIFFYNQIRNAQMGYSDVEKRILESPEYVSIPK | -0.53 |
| HMIYQNVINLLKNRLNSSIYNIGDLLPSEKELAEHYDVSRNTLRKALKTLEEEGMIERRHGSGTYLRNK | -1.67 |
| HMIYWGTMVDKIYEVLSLAGKPLSLMEIYQQVKVFFPNSTKSSIEASMRLDARHRFKYDVEGHVYSLVD | -3.44 |
| HMIYYTEEELVKRYIDFSNYLGKKEGASDVDFKKYAVEFGIPSRDHYNRKFITLFNLKIKAGYKPIRH | -0.835 |
| HMKAAQDQDQAATLLQKATGVNQDQAKLAATVLFKEQSVTPIRQAIASGDYYQAYQDAKSLQQQ | 0.221 |
| HMKADIEQVQRAFDTLDPKNQQLVLDAMKAATAELDPNSDQFKTNTEFINDNQKALDRHAKAS | 0.122 |
| HMKAGAVFNEGDVLYPKIGGLKLMAAAGEGGKVVATLAKTDEMIYMGEEQSGFVKVESGSGSGWVKKILVA | 0.438 |
